The target in this assay is human IL-13Rα2 on the surface of human tumour cell lines (human) (UniProt Q14627). The assay can be described thus: cell-based or functional assay.
Sequence of human IL-13Rα2 on the surface of human tumour cell lines (human) (Q14627 27-380): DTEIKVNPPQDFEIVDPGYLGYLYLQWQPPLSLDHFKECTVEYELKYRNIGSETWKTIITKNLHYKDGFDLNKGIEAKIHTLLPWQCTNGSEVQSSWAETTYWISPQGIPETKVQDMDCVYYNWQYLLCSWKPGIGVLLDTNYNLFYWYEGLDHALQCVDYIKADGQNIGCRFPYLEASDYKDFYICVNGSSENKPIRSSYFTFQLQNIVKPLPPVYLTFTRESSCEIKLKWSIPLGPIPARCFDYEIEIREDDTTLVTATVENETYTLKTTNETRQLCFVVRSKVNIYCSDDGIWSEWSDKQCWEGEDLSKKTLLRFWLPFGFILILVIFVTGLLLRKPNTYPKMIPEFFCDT

Substance “ab27414 (Abcam), monoclonal mouse IgG1 anti-IL-13Rα2 (antibody)” had a % internalization, 15 min, A375 of 49.3%; a % internalization, 15 min, H460R of 57.5%; a % internalization, 15 min, Hs766T of 60.8%; a % internalization, 15 min, PC3MM2 of 60.2%. Besides, the % internalization, 4 hours, A375 came to 68.2%; the % internalization, 4 hours, H460R was found to be 49.2%; the % internalization, 4 hours, Hs766T stood at 73.6%; the % internalization, 4 hours, PC3MM2 is 49.7%.
Substance “hIgG8.8-mc-3377 non-binding control ADC (antibody)” had an IC50 (ng Ab/mL), in vitro cytotoxicity, A375 of over 400000 ng Ab/mL and an IC50 (ng Ab/mL), in vitro cytotoxicity, PC3MM2 of over 400000 ng Ab/mL.
In turn, “hIgG8.8-vc-0101 non-binding control ADC (antibody)” returned an IC50 (ng Ab/mL), in vitro cytotoxicity, A375 of over 400000 ng Ab/mL and an IC50 (ng Ab/mL), in vitro cytotoxicity, PC3MM2 of over 400000 ng Ab/mL.
